Reference: publication PMC3075217

Target: rat collagen type I (rat) (UniProt P02454)
Assay: ELISA; rat collagen type I coated on a 96-well plate; rPnxIIIA variants applied at 10 μg/ml; detected with anti-6x Histidine tag monoclonal antibody, read as A620

Sequence of UniProt P02454 (P02454 152-1207, chain 1 of 2): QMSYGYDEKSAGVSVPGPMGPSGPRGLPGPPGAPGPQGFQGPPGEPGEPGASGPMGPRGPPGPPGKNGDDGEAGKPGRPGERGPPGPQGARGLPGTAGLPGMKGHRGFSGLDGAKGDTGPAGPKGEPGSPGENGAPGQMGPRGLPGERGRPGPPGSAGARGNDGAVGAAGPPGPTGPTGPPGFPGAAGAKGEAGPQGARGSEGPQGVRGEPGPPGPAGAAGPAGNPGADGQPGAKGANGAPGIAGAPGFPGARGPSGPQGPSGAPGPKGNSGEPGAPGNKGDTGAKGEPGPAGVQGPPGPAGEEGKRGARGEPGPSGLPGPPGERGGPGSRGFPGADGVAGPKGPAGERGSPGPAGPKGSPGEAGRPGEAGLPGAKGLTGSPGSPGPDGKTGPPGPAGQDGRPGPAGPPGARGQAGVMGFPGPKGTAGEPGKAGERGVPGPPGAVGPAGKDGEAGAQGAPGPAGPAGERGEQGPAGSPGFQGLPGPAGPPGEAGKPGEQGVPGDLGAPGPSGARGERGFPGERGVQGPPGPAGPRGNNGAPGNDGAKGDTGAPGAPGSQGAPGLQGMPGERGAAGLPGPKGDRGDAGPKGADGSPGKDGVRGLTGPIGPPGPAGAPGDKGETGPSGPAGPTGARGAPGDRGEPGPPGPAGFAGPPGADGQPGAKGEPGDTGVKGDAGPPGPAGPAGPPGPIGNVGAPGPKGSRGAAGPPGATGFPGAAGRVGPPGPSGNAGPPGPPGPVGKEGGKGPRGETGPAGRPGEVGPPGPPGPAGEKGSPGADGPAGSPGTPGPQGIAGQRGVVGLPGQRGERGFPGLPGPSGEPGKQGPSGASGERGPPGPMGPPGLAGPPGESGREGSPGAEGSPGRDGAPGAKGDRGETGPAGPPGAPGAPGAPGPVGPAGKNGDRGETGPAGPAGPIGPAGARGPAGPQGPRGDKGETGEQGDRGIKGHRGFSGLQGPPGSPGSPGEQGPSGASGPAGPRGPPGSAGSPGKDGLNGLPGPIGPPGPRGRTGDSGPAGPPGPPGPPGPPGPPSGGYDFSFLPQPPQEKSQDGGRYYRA
Sequence of UniProt P02454 (P02466 86-1125, chain 2 of 2, further chain): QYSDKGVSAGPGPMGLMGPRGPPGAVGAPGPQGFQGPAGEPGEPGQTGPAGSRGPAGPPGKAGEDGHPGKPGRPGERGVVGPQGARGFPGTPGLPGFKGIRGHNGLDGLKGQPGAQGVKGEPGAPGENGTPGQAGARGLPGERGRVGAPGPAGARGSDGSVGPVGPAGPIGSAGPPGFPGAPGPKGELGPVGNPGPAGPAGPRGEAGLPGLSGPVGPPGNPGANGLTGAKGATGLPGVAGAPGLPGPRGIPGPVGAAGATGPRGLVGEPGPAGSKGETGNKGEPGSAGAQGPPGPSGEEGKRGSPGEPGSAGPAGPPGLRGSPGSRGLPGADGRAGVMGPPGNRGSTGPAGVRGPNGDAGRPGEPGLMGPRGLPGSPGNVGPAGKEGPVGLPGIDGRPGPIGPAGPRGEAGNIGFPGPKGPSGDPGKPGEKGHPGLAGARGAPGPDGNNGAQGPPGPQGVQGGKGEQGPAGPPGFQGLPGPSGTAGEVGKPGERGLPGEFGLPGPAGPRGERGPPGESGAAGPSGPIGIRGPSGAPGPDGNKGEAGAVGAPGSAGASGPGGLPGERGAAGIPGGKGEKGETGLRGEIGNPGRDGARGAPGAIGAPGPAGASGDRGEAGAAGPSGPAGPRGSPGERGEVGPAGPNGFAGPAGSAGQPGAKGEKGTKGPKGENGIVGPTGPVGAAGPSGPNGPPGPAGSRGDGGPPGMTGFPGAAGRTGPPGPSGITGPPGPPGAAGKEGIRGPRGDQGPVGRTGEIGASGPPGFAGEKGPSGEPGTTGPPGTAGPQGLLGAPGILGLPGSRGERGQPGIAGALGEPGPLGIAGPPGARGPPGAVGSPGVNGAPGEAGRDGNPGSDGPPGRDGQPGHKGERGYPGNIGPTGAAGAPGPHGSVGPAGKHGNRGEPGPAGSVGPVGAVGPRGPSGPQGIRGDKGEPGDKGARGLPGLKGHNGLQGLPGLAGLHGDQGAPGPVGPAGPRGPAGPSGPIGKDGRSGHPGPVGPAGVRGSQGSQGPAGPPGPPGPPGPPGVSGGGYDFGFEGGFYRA

Question: “Recombinant PnxIIIA protein (natural protein)” was tested. Which A620 at 10 μg/ml did it give?
Answer: 0.55 A620
